Test results taken from article PMC7997880, “MED15 prion-like domain forms a coiled-coil responsible for its amyloid conversion and propagation” (Communications Biology, 2021).

Columns and labels:
[1] = molecular target: GFP-MED15PP (GFP-MED15CC with five Pro substitutions in the MED15 coiled-coil region); assay: GFP fluorescence of supernatant fraction (self-association / aggregation); settings: 5 μM protein, 9 hours at 37 °C without agitation in 20 mM Tris pH 7.5 and 150 mM NaCl; parent: est. 0.50; read off a plot
[2] = molecular target: GFP-MED15PP (GFP-MED15CC with five Pro substitutions in the MED15 coiled-coil region); assay: synchronous light scattering (self-association / aggregation); settings: 5 μM protein, 9 hours at 37 °C without agitation in 20 mM Tris pH 7.5 and 150 mM NaCl; parent: est. 620; read off a plot
[3] = molecular target: the molecule itself; assay: SEC; 2 mg/ml purified protein on Superdex 200 HR 10/30; 20 mM TrisHCl pH 7.4, 150 mM NaCl, 10% glycerol

GFP-MED15CC (human MED15 prion-like domain, MED15-PrLD, residues 141-316, fused at the C-terminus of GFP) MED15PP (five Pro substitutions at heptad 'a' positions; residues not printed in this figure)
other: Normalized GFP fluorescence (supernatant fraction) [1]: 0.83
response [2]: 180 a.u.

B1: GFP-MED15CC (human MED15 prion-like domain, MED15-PrLD, residues 141-316, fused at the C-terminus of GFP) (domain or fragment)
chain: MAVVSTATPQTQLQLQQVALQQQQQQQQFQQQQQAALQQQQQQQQQQQFQAQQSAMQQQFQAVVQQQQQLQQQQQQQQHLIKLHHQNQQQIQQQQQQLQRIAQLQLQQQQQQQQQQQQQQQQALQAQPPIQQPPMQQPQPPPSQALPQQLQQMHHTQHHQPPPQPQQPPVAQNQPS
notes: Mediator complex subunit 15 (MED15), human, prion-like domain with the Q-rich coiled-coil and Pro-rich regions, residues 141-316; No cleavage step is described; Dimer by SEC, native PAGE and DLS; source: E. coli BL21 Rosetta, pET21b, purified from the soluble fraction (two HisTrap Ni steps, RNase treatment, PD10); not shown: GFP, N-terminal, kept
stoichiometry N [3]: 2
